We go through one substance from paper PMC2173603.

The experiment addresses L1-CFP (CFP tagged to the COOH terminus of human L1-CAM) (human) (UniProt P32004). Put plainly: FRET or BRET. Background: Bioluminescence resonance energy transfer reports proximity on the nanometre scale.
UniProt P32004, sequence (P32004 20-1257): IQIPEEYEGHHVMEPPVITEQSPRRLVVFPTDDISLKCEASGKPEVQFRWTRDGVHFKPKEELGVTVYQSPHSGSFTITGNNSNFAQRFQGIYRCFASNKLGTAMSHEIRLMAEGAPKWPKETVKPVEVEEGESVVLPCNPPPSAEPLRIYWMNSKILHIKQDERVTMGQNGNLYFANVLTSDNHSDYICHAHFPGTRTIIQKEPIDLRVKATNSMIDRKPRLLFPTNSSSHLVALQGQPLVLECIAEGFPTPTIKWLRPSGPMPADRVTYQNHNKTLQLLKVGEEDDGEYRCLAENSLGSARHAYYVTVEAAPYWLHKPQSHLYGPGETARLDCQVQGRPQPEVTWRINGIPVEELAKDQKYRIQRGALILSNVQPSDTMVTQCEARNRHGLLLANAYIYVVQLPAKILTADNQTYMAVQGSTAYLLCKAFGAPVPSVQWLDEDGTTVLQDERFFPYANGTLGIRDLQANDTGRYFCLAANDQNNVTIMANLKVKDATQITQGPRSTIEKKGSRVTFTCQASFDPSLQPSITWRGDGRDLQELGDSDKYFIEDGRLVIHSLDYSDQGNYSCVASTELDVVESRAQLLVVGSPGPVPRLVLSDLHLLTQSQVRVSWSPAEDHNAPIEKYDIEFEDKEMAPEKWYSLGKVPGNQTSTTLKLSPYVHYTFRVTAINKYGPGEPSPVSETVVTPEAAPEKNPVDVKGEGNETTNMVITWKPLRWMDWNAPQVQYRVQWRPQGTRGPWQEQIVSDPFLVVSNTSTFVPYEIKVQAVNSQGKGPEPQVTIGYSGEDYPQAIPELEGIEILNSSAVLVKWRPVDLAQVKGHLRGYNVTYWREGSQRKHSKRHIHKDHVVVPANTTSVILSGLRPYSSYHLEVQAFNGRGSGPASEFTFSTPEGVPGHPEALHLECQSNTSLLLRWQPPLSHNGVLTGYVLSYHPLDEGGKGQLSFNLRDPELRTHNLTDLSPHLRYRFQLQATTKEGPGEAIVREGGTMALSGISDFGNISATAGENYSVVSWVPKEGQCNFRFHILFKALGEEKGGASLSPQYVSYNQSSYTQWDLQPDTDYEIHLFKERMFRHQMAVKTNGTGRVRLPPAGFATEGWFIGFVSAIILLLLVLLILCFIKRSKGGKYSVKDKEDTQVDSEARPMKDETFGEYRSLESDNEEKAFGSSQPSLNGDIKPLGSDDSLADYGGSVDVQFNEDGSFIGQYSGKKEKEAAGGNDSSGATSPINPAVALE

For “Venus-ankyrinB (Venus tagged to the NH2 terminus of human ankyrinB) (natural protein)”, the percent of ankyrinB clusters with FRET^E >8% stood at 29.4%.
